Test results published in article PMC12088422 (Proceedings of the National Academy of Sciences of the …, 2025).

Target: the molecule itself
Assay: SEC-MALS

B1: Pseudomonas aeruginosa PAO1 glutamyl-tRNA synthetase (enzyme, UniProt Q9XCL6 1-494, looked up)
chain: MTTVRTRIAPSPTGDPHVGTAYIALFNLCFARQHGGQFILRIEDTDQLRSTRESEQQIYDALRWLGIEWDEGPDVGGPHGPYRQSERGHIYKKYSDELVEKGHAFTCFCTPERLDAVRAEQMARKETPRYDGHCMHLPKDEVQRRLAAGESHVTRMKVPTEGVCVVPDMLRGDVEIPWDRMDMQVLMKADGLPTYFLANVVDDHLMGITHVLRGEEWLPSAPKLIKLYEYFGWEQPQLCYMPLLRNPDKSKLSKRKNPTSITFYERMGYLPQALLNYLGRMGWSMPDEREKFTLAEMIEHFDLSRVSLGGPIFDLEKLSWLNGQWIREQSVEEFAREVQKWALNPEYLMKIAPHVQGRVENFSQIAPLAGFFFSGGVPLDASLFEHKKLDPTQVRQVLQLVLWKLESLRQWEKERITGCIQAVAEHLQLKLRDVMPLMFPAITGHASSVSVLDAMEILGADLSRYRLRQALELLGGASKKETKEWEKIRDAIPG
stoichiometry N: 2
